B1: A334R: bx9 SEQ ID NO:1 mutant (protein)
chain: MASSRTGAGAGGRVVVFPFPFQGHFNPVMRLARALHARGLAITVFHSGALDPADYPADYRFVPVTVEADPKLLASEDIAAIVTTLNASCDAPFRARLSALLAAEGRDSVRCVFTDVSWNAVLTASSDLGVPALGMMTASAASLRDYMAYRTLIDKGYLPVKEERKEDPVPELPPYLVKDLLRVDTSDLEEFAELLARTVTAARRASGLIFNTFPLIETDTLAEIHKALSVPVFAVAPLNKLVPTATASLHGVVQADRGCLQWLDTQQPGSVLYVSFGSMAAMDPHEFVELAWGLADSKRPFVWVVRPNLIRGFESGALPDGVEDEVRGRGIVVRWAPQEEVLAHPAVGGFLTHNGWNSTVEAISEGVPMVCCPRHGDQFGNMRYVCDVWKVGTELVGEQLERGQVKAAIDRLFGTKEGEEIKERMKEFKIAAAKGIGIGVDVDETASPRTDLTDLVDLIKSF
modifications: Zea mays
B2: A334S: bx9 SEQ ID NO:1 mutant (protein)
chain: B1 chain with R334S
modifications: Zea mays
B3: A334N: bx9 SEQ ID NO:1 mutant (protein)
chain: B1 chain with R334N
modifications: Zea mays
B4: G376L: bx9 SEQ ID NO:1 mutant (protein)
chain: B1 chain with R334A, G376L
modifications: Zea mays
B5: G376M: bx9 SEQ ID NO:1 mutant (protein)
chain: B1 chain with R334A, G376M
modifications: Zea mays
B6: I363M: bx9 SEQ ID NO:1 mutant (protein)
chain: B1 chain with R334A, I363M
modifications: Zea mays
B7: A281C: bx9 SEQ ID NO:1 mutant (protein)
chain: B1 chain with A281C, R334A
modifications: Zea mays
B8: A334L: bx9 SEQ ID NO:1 mutant (protein)
chain: B1 chain with R334L
modifications: Zea mays
B9: I363L: bx9 SEQ ID NO:1 mutant (protein)
chain: B1 chain with R334A, I363L
modifications: Zea mays
B10: A334V: bx9 SEQ ID NO:1 mutant (protein)
chain: B1 chain with R334V
modifications: Zea mays
B11: A281R: bx9 SEQ ID NO:1 mutant (protein)
chain: B1 chain with A281R, R334A
modifications: Zea mays
B12: A334Q: bx9 SEQ ID NO:1 mutant (protein)
chain: B1 chain with R334Q
modifications: Zea mays
B13: A281K: bx9 SEQ ID NO:1 mutant (protein)
chain: B1 chain with A281K, R334A
modifications: Zea mays
B14: A281Q: bx9 SEQ ID NO:1 mutant (protein)
chain: B1 chain with A281Q, R334A
modifications: Zea mays
B15: A281M: bx9 SEQ ID NO:1 mutant (protein)
chain: B1 chain with A281M, R334A
modifications: Zea mays
B16: T220K: bx9 SEQ ID NO:1 mutant (protein)
chain: B1 chain with T220K, R334A
modifications: Zea mays
B17: T220L: bx9 SEQ ID NO:1 mutant (protein)
chain: B1 chain with T220L, R334A
modifications: Zea mays
B18: T220N: bx9 SEQ ID NO:1 mutant (protein)
chain: B1 chain with T220N, R334A
modifications: Zea mays
B19: T220Y: bx9 SEQ ID NO:1 mutant (protein)
chain: B1 chain with T220Y, R334A
modifications: Zea mays
B20: T220A: bx9 SEQ ID NO:1 mutant (protein)
chain: B1 chain with T220A, R334A
modifications: Zea mays
B21: T220M: bx9 SEQ ID NO:1 mutant (protein)
chain: B1 chain with T220M, R334A
modifications: Zea mays
B22: T220I: bx9 SEQ ID NO:1 mutant (protein)
chain: B1 chain with T220I, R334A
modifications: Zea mays
B23: T220E: bx9 SEQ ID NO:1 mutant (protein)
chain: B1 chain with T220E, R334A
modifications: Zea mays

Residue numbers refer to the chain shown, from its start. Names and notes keep the numbering of the source.

The nature of the first assay: UDP luminescence plate assay of E. coli extracts, mutants of SEQ ID No: 1, 2 mM metribuzin. In kind it is biochemical, Zea mays. Particulars: 2 mM metribuzin. The procedure, abridged:
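Extracts of E. coli BL21 DE3 expressing C-terminally His-tagged SEQ ID NO:1 variants incubated with 2 mM metribuzin; UDP formed read by UDP-Glo luminescence against a UDP standard curve, with optional 95 C stop. Mutants ranked by metribuzin/DMSO signal ratio and signal increase over wild-type bx9.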
B1: the “SIGNAL: metribuzin signal of mutant divided by metribuzin signal of w/t bx9” value was 1.94.
As for B2, the “SIGNAL: metribuzin signal of mutant divided by metribuzin signal of w/t bx9” value was found to be 0.98.
In the case of B3, the “SIGNAL: metribuzin signal of mutant divided by metribuzin signal of w/t bx9” value is given as 1.56.

The same assay, now with this note: 2 mM metribuzin vs DMSO control, same mutant.
As for B4, the “RATIO of the metribuzin signal to the DMSO signal” value was found to be 0.99.
The same measure, in the same setting: the same measure for B5: 1.13; for B6: 0.90.

The assay is the same for the next values; noted with them: 2 mM metribuzin; H24A null background 1.00E+05 not subtracted.
As for B1, the “luminescence signal with metribuzin” value was 2.39E+05.
Take B2: the “luminescence signal with metribuzin” value is 1.21E+05.
On to B3, for which the “luminescence signal with metribuzin” value is reported as 1.93E+05.

Still in this assay, the particulars now being: 2 mM metribuzin; relative to bx9 w/t.
For B7, the “SIGNAL: metribuzin signal of mutant divided by the signal of w/t bx9” value came to 1.58.
The same measure, in the same setting: to B4 belongs 1.27; to B8, 1.51; to B5, 1.13.
The same measure, in the same setting: to B9 belongs 1.24; to B6, 1.67; to B10, 1.57.
Regarding B11, the “SIGNAL: metribuzin signal of mutant divided by the signal of w/t bx9” value was 3.90.
On to B12, for which the “SIGNAL: metribuzin signal of mutant divided by the signal of w/t bx9” value was found to be 1.22.
The same measure, in the same setting: to B13 belongs 4.98; to B14, 2.82; to B15, 2.59.

The assay is the same for the next values; noted with them: mutants of SEQ ID No: 1; DMSO in place of metribuzin (background UDP-glucose hydrolysis).
As for B7, the “luminescence signal in the DMSO control” value was 4.80E+05.
On to B4, for which the “luminescence signal in the DMSO control” value turned out to be 3.59E+05.
On to B8, for which the “luminescence signal in the DMSO control” value stood at 5.19E+05.
Take B5: the “luminescence signal in the DMSO control” value was determined as 2.80E+05.
For the molecule B9, the “luminescence signal in the DMSO control” value amounted to 4.00E+05.
Regarding B6, the “luminescence signal in the DMSO control” value came to 5.22E+05.
Take B10: the “luminescence signal in the DMSO control” value is recorded as 4.80E+05.
For the molecule B11, the “luminescence signal in the DMSO control” value was found to be 1.30E+06.
On the same count and under the same terms, to B12 belongs 4.88E+05; to B13, 1.66E+06; to B14, 7.59E+05.
Same read-out and setting: the same measure for B15: 8.45E+05.

The assay is the same for the next values; noted with them: mutants of SEQ ID No: 1 in E. coli extracts; 2 mM metribuzin; UDP luminescence.
On to B7, for which the “luminescence signal observed with 2 mM metribuzin” value (“luminescence signal observed” for short) stood at 4.43E+05.
On the same count and under the same terms, to B4 belongs 3.56E+05; to B8, 4.22E+05; to B5, 3.15E+05.
Regarding B9, the “luminescence signal observed” value turned out to be 3.47E+05.
With B6, the “luminescence signal observed” value is recorded as 4.68E+05.
The same measure, in the same setting: the same measure for B10: 4.40E+05; for B11: 1.09E+06.
B12: the “luminescence signal observed” value is recorded as 3.40E+05.
As to B13, the “luminescence signal observed” value stood at 1.39E+06.
For B14, the “luminescence signal observed” value came out at 7.89E+05.
Same read-out and setting: to B15 belongs 7.25E+05.

The nature of the next assay: UDP luminescence plate assay of E. coli extracts, saturation mutants of SEQ ID NO: 1, herbicide V. Type of assay: biochemical, Zea mays. Particulars: improvement factor relative to w/t bx9 = 1.0, rounded to nearest 0.5; extract activity basis; compound V.
As for B7, the “Most Preferred amino acid substitutions and (IF) based on RLU/min/ul” value was “C,Q(3.0)”.
Turning to B16, the “Most Preferred amino acid substitutions and (IF) based on RLU/min/ul” value came out at 3.0.
Same read-out and setting: to B4 belongs “L(2.0)”.
For B8, the “Preferred amino acid substitutions and (IF) based on RLU/min/ul” value is “S,Q,V,L(1.5)”.
On the same count and under the same terms, the same measure for B17: “C,A,N,E,L,I,M(1.5)”; for B5: “C,M(1.0)”.
Consider B1, for which the “Most Preferred amino acid substitutions and (IF) based on RLU/min/ul” value was “K,R(2.0)”.
B18: the “Preferred amino acid substitutions and (IF) based on RLU/min/ul” value is “C,A,N,E,L,I,M(1.5)”.
For the molecule B19, the “Most Preferred amino acid substitutions and (IF) based on RLU/min/ul” value is 3.5.
Same read-out and setting: to B9 belongs “L,M(3.0)”.
For the molecule B20, the “Preferred amino acid substitutions and (IF) based on RLU/min/ul” value is listed as “C,A,N,E,L,I,M(1.5)”.
As to B2, the “Preferred amino acid substitutions and (IF) based on RLU/min/ul” value was “S,Q,V,L(1.5)”.
As to B6, the “Most Preferred amino acid substitutions and (IF) based on RLU/min/ul” value is given as “L,M(3.0)”.
Regarding B10, the “Preferred amino acid substitutions and (IF) based on RLU/min/ul” value is reported as “S,Q,V,L(1.5)”.
Same read-out and setting: the same measure for B3: “N(1.0)”.
In the case of B11, the “Most Preferred amino acid substitutions and (IF) based on RLU/min/ul” value was 5.0.
Consider B12, for which the “Preferred amino acid substitutions and (IF) based on RLU/min/ul” value was “S,Q,V,L(1.5)”.
For B13, the “Most Preferred amino acid substitutions and (IF) based on RLU/min/ul” value came to 6.0.
On to B21, for which the “Preferred amino acid substitutions and (IF) based on RLU/min/ul” value is on record as “C,A,N,E,L,I,M(1.5)”.
Consider B14, for which the “Most Preferred amino acid substitutions and (IF) based on RLU/min/ul” value is “C,Q(3.0)”.
Consider B15, for which the “Most Preferred amino acid substitutions and (IF) based on RLU/min/ul” value is given as 5.0.
For the molecule B22, the “Preferred amino acid substitutions and (IF) based on RLU/min/ul” value was “C,A,N,E,L,I,M(1.5)”.
Turning to B23, the “Preferred amino acid substitutions and (IF) based on RLU/min/ul” value is recorded as “C,A,N,E,L,I,M(1.5)”.
